The source of these data is patent publication US20220356230A1.

Holding throughout (experiment): Luminex bead assay, antibody supernatant on modified RBD.mmH microspheres
The target of assay [1] is MOD14 - SARS-CoV-2 Spike Protein (RBD)(R319-F541).mmH (SARS-CoV-2).
Assay [2] deals with MOD11 - SARS-CoV-2 Spike Protein (RBD)(R319-F541).mmH (SARS-CoV-2).
Assay [3] deals with MOD9 - SARS-CoV-2 Spike Protein (RBD)(R319-F541).mmH (SARS-CoV-2).
In assay [4] the target is MOD10 - SARS-CoV-2 Spike Protein (RBD)(R319-F541).mmH (SARS-CoV-2).
The target in assay [5] is MOD8 - SARS-CoV-2 Spike Protein (RBD)(R319-F541).mmH (SARS-CoV-2).
Assay [6] addresses MOD15 - SARS-CoV-2 Spike Protein (RBD)(R319-F541).mmH (SARS-CoV-2).
Assay [7] addresses MOD13 - SARS-CoV-2 Spike Protein (RBD)(R319-F541).mmH (SARS-CoV-2).
Assay [8] has as its target MOD12 - SARS-CoV-2 Spike Protein (RBD)(R319-F541).mmH (SARS-CoV-2).

Consider mAb10936 (antibody), for which the Binding signal (MFI) was found to be 28500 MFI in assay [1]; 30800 MFI in assay [2]; 29100 MFI in assay [3]; 28800 MFI in assay [4]; 2920 MFI in assay [5]; 21700 MFI in assay [6]. Besides, the Binding signal (MFI) in assay [7] is 29200 MFI; in assay [8] it was 31700 MFI.
